Results on one protein are retold here after patent US20100184108.

The series addresses T1, 15-residue histone H3 trimethylated Lys9 (H3K9me3) substrate peptide, H2N-ARTKQTARK(tri-methyl)STGGKA-amide.
T1 chain: ARTKQTARKSTGGKA

B1: catalytic domain, residues 1-350, of the human histone demethylase JMJD2A (protein)
chain: MASESETLNPSARIMTFYPTMEEFRNFSRYIAYIESQGAHRAGLAKVVPPKEWKPRASYDDIDDLVIPAPIQQLVTGQSGLFTQYNIQKKAMTVREFRKIANSDKYCTPRYSEFEELERKYWKNLTFNPPIYGADVNGTLYEKHVDEWNIGRLRTILDLVEKESGITIEGVNTPYLYFGMWKTSFAWHTEDMDLYSINYLHFGEPKSWYSVPPEHGKRLERLAKGFFPGSAQSCEAFLRHKMTLISPLMLKKYGIPFDKVTQEAGEFMITFPYGYHAGFNHGFNCAESTNFATRRWIEYGKQAVLCSCRKDMVKISMDVFVRKFQPERYKLWKAGKDNTVIDHTLPTPEA
With B1, the “fluorescence of the formaldehyde-Luminos reagent adduct (demethylase activity, positive control assay)” value is 57,000±400 relative fluorescence units; the “fold reduction in the fluorescence signal when a component is omitted” value is listed as “Omission of 2-OG, the H3K9me3 peptide, or JMJD2A results in a ˜30-fold reduction in the fluorescence signal”; the “signal to background ratio (positive control reactions against negative control assays)” value is “signal to background ratio of 20:1 or greater”.
